Measured values taken from patent publication US20260008852A1 (CRYSTAL BIOSCIENCE, published 2026).
Numbering of substitutions follows the chain as printed.

T1: B7-H3 on CHO-K1 cells stably transfected with B7-H3 (GenScript #M00536) (UniProt Q5ZPR3 29-534, limits assumed)
T1 sequence (looked up): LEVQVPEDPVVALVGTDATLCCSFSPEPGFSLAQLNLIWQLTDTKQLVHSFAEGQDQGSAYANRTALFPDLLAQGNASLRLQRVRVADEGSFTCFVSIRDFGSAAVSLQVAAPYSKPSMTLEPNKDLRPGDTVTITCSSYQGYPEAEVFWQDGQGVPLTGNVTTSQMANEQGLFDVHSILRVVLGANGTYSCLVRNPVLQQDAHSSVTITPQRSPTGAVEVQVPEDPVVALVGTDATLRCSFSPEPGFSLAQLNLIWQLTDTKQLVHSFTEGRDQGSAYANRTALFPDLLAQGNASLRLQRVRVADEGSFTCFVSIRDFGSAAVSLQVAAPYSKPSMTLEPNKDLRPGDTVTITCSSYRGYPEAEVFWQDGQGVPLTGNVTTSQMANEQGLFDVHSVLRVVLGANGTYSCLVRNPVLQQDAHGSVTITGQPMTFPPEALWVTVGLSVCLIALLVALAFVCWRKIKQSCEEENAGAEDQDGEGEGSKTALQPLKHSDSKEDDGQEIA

T2: his-tagged B7-H3 (UniProt Q5ZPR3-2 29-245, limits assumed)
T2 construct: also called CD276; not shown: His tag
T2 sequence (looked up): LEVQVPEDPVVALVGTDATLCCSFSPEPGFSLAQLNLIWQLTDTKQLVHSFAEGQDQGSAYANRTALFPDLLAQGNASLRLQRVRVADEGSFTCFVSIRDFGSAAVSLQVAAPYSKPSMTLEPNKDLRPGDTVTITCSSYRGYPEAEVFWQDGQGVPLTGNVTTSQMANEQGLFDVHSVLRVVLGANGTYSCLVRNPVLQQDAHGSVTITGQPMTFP

B1: 40511p1.1.D6 IgG (antibody, V domains shown)
VH: DVQLVESGGGVVRPGESLTLSCAASGFTINSYAVSWVRQAPGEGLEWVSGISGSGVRYYADSVKGRFTISRDNSNNTLYLQMNSLRAEDTAVYYCARSNKVTWNNFFDYWGLGTLVTVSS
VL: EVVLTQSPGTLTLSPGERATLSCRASRSILTSLAWYQQKPGQAPRLLIYNTVTRATGIPARFSGSGSGTEFTLTINSLQSEDFAVYYCQQYYDWPPLTFGGGTKVEIK
B2: 40633p1.2.E1 IgG (antibody, V domains shown)
VH: EVQLLESGRGLVQPGGSLRLSCAASGFTVSYYGMSWVRQAPGKGLEWVSVIKQDGSEEYYADSVKGRFTISRDNSKNTLYLQMNSLRAEDTAVYYCARHWNDYSNGMNVWGQGTTVTVSS
VL: QSVLTQPPSASGTPGQRVTISCSGSTSNVGDRYVYWYQQLPGTAPKLLIYLDDQRPSGVPDRFSGSKSGTSASLAISGLQSEDEADYYCASWDASLNGWVFGGGTKLTVL
B3: 40633p1.2.E5 IgG (antibody, V domains shown)
VH: EVQLLESGGGLVQPGGSLRLSCAASGFTFDGYGMSWVRQAPGKGLEWVSAISGNSGSIYYADSVKGRFTISRDNSKNTLYLQMNSLRAEDTAAYYCAKEKWKHFIYYGMDVWGQGTTVTVSS
VL: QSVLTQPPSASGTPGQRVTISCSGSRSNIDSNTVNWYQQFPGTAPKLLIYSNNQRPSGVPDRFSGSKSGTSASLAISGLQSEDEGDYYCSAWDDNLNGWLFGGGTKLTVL
B4: 40633p1.2.F3 IgG (antibody, V domains shown)
VH: B2 VH with R9G
VL: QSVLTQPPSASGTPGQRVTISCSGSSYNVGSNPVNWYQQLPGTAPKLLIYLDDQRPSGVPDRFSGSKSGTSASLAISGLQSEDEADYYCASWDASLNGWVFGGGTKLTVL
B5: 40511p1.1.G1 IgG (antibody, V domains shown)
VH: DVQLVESGGGVVRPGESLRLSCAASGFTFSSYAESWVRQAPGEGLEWVSIISGSGGNTFYADSVKGRFTISRDNSKNTLYLQMNSLRAEDTAVYYCARFAYGFFDYWGLGTLVTVSS
VL: EIVLTQSPGTLSVSPGEGATLSCRASQTVGSKLAWYQQKPGQPPSLLIYDASTRATGIPDRFSGSGSGTDFTLTISSLQSEDFAVYYCQQYRNWPPLTFGGGTKVEIK
B6: 40511p1.1.G3 IgG (antibody, V domains shown)
VH: B1 VH with N73D
VL: B1 VL
B7: 40511p1.1.A1 IgG (antibody, V domains shown)
VH: DVQLVESGGGVVRPGESLRLSCAASGFTFSNYAMNWVRQAPGEGLEWVSRINYKGYNITYYADSVKGRFTISRDNSKNTLYLQMNSLRAEDTAVYYCAKSGSNSNNFFDYWGLGTLVTVSS
VL: EIVLTQSPGTLSVSPGERATLSCRASQSVNSKLAWYQQRPGQAPRLLIYDASSRATGIPDRFSGSGSGTDFTLTISRLEPEDFAVYYCQQYKNWPPLTFGGGTKVEIK
B8: 40511p1.1.H5 IgG (antibody, V domains shown)
VH: B7 VH
VL: EIVLTQSPGTLSLSPGERATLSCRASQSIRSDLAWYQQKPGQAPRLLIYGAASRATGIPARFSGSGSGTEFTLTISSLQSGDFAVYYCQQYNSWPPLTFGGGTKVEIK
B9: 40511p1.2.A12 IgG (antibody, V domains shown)
VH: B5 VH
VL: B5 VL with G18R
B10: 40511p1.2.A4 IgG (antibody, V domains shown)
VH: B5 VH
VL: B5 VL with G18R, P43A, S45R, G57D
B11: 40511p1.2.G10 IgG (antibody, V domains shown)
VH: B7 VH
VL: B5 VL with V13L, G18R, P43A, S45R, D50G, G57D, D70E, R92I, T98S
B12: 40633p1.1.H11 scFv-Fc (scFv, V domains shown)
VH: EVQLLESGGGLVQPGGSLRLSCAASGFTFSSYPMTWVRQAPGKGLEWVADINSGGGTTLYADAVKGRFTISRDNSKNIVYLQMNSLRGEDTAVYYCAKHLDYYSYGMDVWGQGTTVTVSS
VL: QSVLTQPPSASGTPGQRVTISCSGVTSKIGSKYVHWYQQLPGTAPKLLIYRNFERPSGVPDRFSGSTSGTSASLAISGLQSEDEADYYCATWEGALNGWVFGGGTKLTVL
notes: Tested as scFv-Fc supernatant
B13: 40633p1.2.A8 scFv-Fc (scFv, V domains shown)
VH: EVQLLESGGGLLQPGGSLRLSCAASGFSFSSYGMHWVRQAPGKGLEWVAAINSDGSRIYYADSVKGRFTISRDNSKNTLYLQMNSLRAEDTAVYYCTKYYYHYAMDVWGQGTTVTVSS
VL: QSVLTQPPSASGTPGQRVTISCSGSRSDIGATTVNWYQQLPGTAPKLLIYQSHLRPSGVPDRFSGSKSGTSASLAISGLQSEDEADYYCASWDASLNTWVFGGGTKLTVL
B14: 40633p1.2.D1 scFv-Fc (scFv, V domains shown)
VH: B3 VH with G31V, S52N, G53W, S55G, I58T, K76E, A93V
VL: QSVLTQPASASGTPGQTVSISCSGSSSNIDSNTANWYQQLPGTAPKLLIYSNNQRPSGVPDRFSGSKSDTSASLAISGLQSEDEGDYYCSAWDDNLNGWLFGGGTKLTVL
notes: Tested as scFv-Fc supernatant
B15: 40633p1.2.D11 scFv-Fc (scFv, V domains shown)
VH: EVQLESGGGLVQPGGSLRLSCAASGFTVSYYGMSWVRQAPGKGLEWVSAIKQDGSEKYYADSVKGRFTISRDNSKNTLYLQMNSLRAEDTAVYYCARHWNDYSNAMNVWGQGTTVTVSS
VL: B2 VL with V29I, G30A, D31I, R32D, Y33F, Y35N, L51T, D52I, D86V, G103R
notes: Tested as scFv-Fc supernatant
B16: 40633p1.2.E11 scFv-Fc (scFv, V domains shown)
VH: EVQLLESGGGLVQPGGSLRLSCAASGFSFSNYDMSWVRQAPGKGLEWVAGIRSGSRTYYADSVKGRFTISRDNSKNTLYLQMNSLRAEDTATYYCGRYFNMDVWGQGTTVTVSS
VL: QSVLTQPPSASGTPGQRVTISCSGSTFNIGTNLVHWYQQLPGTAPKLLIYLTDRRPPGVPDRFSGSKSGTSASLAISGLQSEDEANYYCATWDDSLNSFLFGGGTKLTVL
B17: 40633p1.2.E5 scFv-Fc (scFv, V domains shown)
VH: B3 VH
VL: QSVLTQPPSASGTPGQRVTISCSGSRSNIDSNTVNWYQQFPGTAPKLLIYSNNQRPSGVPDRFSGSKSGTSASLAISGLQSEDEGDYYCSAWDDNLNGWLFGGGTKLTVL
notes: Tested as scFv-Fc supernatant
B18: 40633p1.2.G9 scFv-Fc (scFv, V domains shown)
VH: B13 VH with K65E
VL: B13 VL
B19: Benchmark MGA-271 (antibody, V domains shown)
VH: EVQLVESGGGLVQPGGSLRLSCAASGFTFSSFGMHWVRQAPGKGLEWVAYISSDSSAIYYADTVKGRFTISRDNAKNSLYLQMNSLRDEDTAVYYCGRGRENIYYGSRLDYWGQGTTVTVSS
VL: DIQLTQSPSFLSASVGDRVTITCKASQNVDTNVAWYQQKPGKAPKALIYSASYRYSGVPSRFSGSGSGTDFTLTISSLQPEDFATYYCQQYNNYPFTFGQGTKLEIK

Target: T1, B7-H3 on CHO-K1 cells stably …
Experiment: cell-based or functional assay

Row | Binder | ADCC reporter assay, EC50 Value, CHOK1/B7-H3 cells [µg/mL] | ADCC reporter assay, Max RLU, CHOK1/B7-H3 cells [RLU]
1 | B1 | 0.014 | 751000
2 | B2 | 0.031 | 725000
3 | B3 | 0.0268 | 669000
4 | B4 | 0.03 | 700000
5 | B5 | 0.0416 | 679000
6 | B6 | 0.0141 | 723000
7 | B7 | 0.0124 | 820000
8 | B8 | 0.0164 | 762000
9 | B9 | 0.0352 | 598000
10 | B10 | 0.0318 | 548000
11 | B11 | ~0.0103 | 893000

Target: T2, his-tagged B7-H3
Experiment: SPR, Carterra LSA; binder captured by anti-human Fc, his-tagged B7-H3 injected
Method: Binding affinities of anti-B7-H3 antibodies to B7-H3 were measured by Surface Plasmon Resonance (SPR) on a Carterra LSA instrument. Goat anti-human Fc antibody was amine coupled to a HC30M chip. ScFv-Fc supernatants were diluted 30-fold with HBSTE and were captured by the anti-human Fc coupled HC30M chip. A 1:2 dilution series of his-tagged B7-H3, starting at 400 nM, was injected onto the chip for binding. Data was analyzed using the Carterra TM Kinetics software.

Row | Binder | Kd [nM] | kon [M⁻¹ s⁻¹] | koff [s⁻¹]
12 | B12 | 0.175 | 113000 | 
13 | B13 | 12.5 | 304000 | 
14 | B14 | 39.8 | 392000 | 0.02
15 | B15 | 307 | 241000 | 0.07
16 | B16 | 1.11 | 134000 | 
17 | B17 | 40.2 | 389000 | 0.02
18 | B18 | 10.8 | 325000 | 
19 | B19 | 164 | 72000 | 0.01
